The supplement of paper PMC9170038

Tested on: MS2 coat protein
Experiment: apparent KD of MS2 coat protein; designed switch direction (-1 OFF switch, 1 ON switch): 1; higher = weaker reporter binding
How it was run: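 Stalled E. coli RNA polymerase transcribed designed RNA switches on Illumina chips, which were then titrated with SNAP-549-labelled MS2 coat protein, doubling from 0.7 or 1.5 nM to 3 µM. Steps lasted from 0.8–1.5 h at the lowest concentration to 10–20 min at the highest. The apparent KD is each design's median over clusters of curve-fitted normalised fluorescence.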

[1] = Eterna round: R95, input ligand: FMN 200 uM
[2] = Eterna round: R95, input ligand: microRNA oligo, concentration not stated
[3] = Eterna round: R95, input ligand: none
[4] = input ligand: microRNA oligo, concentration not stated

Row | Sequence | apparent KD of MS2 coat protein [1] [nM] | apparent KD of MS2 coat protein [2] [nM] | apparent KD of MS2 coat protein [3] [nM] | apparent KD of MS2 coat protein (input ligand: FMN 200 uM) [nM] | apparent KD of MS2 coat protein [4] [nM] | apparent KD of MS2 coat protein (input ligand: none) [nM]
1 | CGUCCAGCCUGAGCUGGACAAAAGCAUGUACAUGAGGAUCACCCAUGUUCAUGUACAAGCUUUUUGCUCGUCUUAUA [salish99_208a_r3_046] (puzzle: Sensor for hsa-mir-208a) | 585 | 13.9 | 479 | – | – | –
2 | CGUCCAGCCUGAGCUGGACAAAAGCAUGUACAUGAGGAUCACCCAUGUUCAUGUACAAGCUUUUUGCUCGUCUUAUG [salish99_208a_r3_054] (Eterna round: R96, puzzle: Sensor for hsa-mir-208a) | – | – | – | 485 | 16.4 | 607
3 | CGUCCAGCCUGAGCUGGACAAAAGCAUGUACAUGAGGAUCACCCAUGUUCAUGUACAAGCUUUUUGCUCGUCUUAUG [salish99_208a_r3_054] (puzzle: Sensor for hsa-mir-208a) | 662 | 17.9 | 1110 | – | – | –
4 | CGUCCGGCCUGUGCUGGCCGGUAUCAUGUACAUGAGGAUCACCCAUGUUCAUGUGCAGGCUUUUUGCUCGUCUUGUG [salish99_mir208a_012] (puzzle: Sensor for hsa-mir-208a) | 20.5 | 12.8 | 19.9 | – | – | –
5 | CGUCCGGCCUGUGCUGGCCGGUGGCUUGUACAUGAGGAUCACCCAUGUUCUUGUGCUGGCUUGUUGCUCGUCUUGUG [salish99_mir208a_r3_022] (puzzle: Sensor for hsa-mir-208a) | 27.9 | 19.1 | 33.4 | – | – | –
6 | CGUCCGGCCUGUGCUGGCCGGUUGCUUGUACAUGAGGAUCACCCAUGUUCAUGUGCAGGCUUUUUGCUCGUCUUGUG [salish99_mir208a_015] (puzzle: Sensor for hsa-mir-208a) | 38.3 | 31.1 | 45.8 | – | – | –
7 | CGUCGUUUGAUAGGAUAUCGCUAUACAUGAGGAUCACCCAUGUUUACCACGCUGGUUUUUCUUUCCGAGAAGGAUUCUGAUGUU [salish99_SSNG02_r04_022] (Eterna round: R96, puzzle: Same State NG 2) | – | – | – | 30.9 | 23.8 | 33.5
8 | CGUCGUUUGCUAGGAUAUCGCUAUACAUGAGGAUCACCCAUGUUUACCACGCUGGUUUUUCAUACCGAGAAGGAUUCUGAUGUU [salish99_SSNG02_r04_018] (Eterna round: R96, puzzle: Same State NG 2) | – | – | – | 24 | 28.7 | 34.1
9 | CGUUGUUCCUGAGGAUAUCAGUUGUUUGCAUUAUGAGAAGGCAGUACAUGAGGAUCACCCAUGUUGGGAUUUGAUAGAAUGACG [JR_SSNG1_Sub008] (Eterna round: R96, puzzle: Same State NG 1) | – | – | – | 221 | 113 | 226
10 | CUAAAACAUGAGGAUCACCCAUGUCAACAAAGUCGAGGAUAUGGGCAAAUAAAAUAAGAACCAGAAGGCGAAUAAG [salish99_SS1_r3_013] (puzzle: Same State 1) | 81.9 | 274 | 543 | – | – | –
11 | CUACGAGCGCCACAGGAUAUACUGAGACUCACAUGAGGAUCACCCAUGUCCAAUUCUCCCAAAUAGUAGAAGGGUGACGCGCUCA [Soordire] (puzzle: Same State 2) | 51.1 | 565 | 546 | – | – | –
12 | CUACUACAUGAGGAUCACCCAUGUUGGAGUGAUGCAGGAUAUGUGUGACCAGAAGAUGAAACAGAAGGGCAAAGAA [JR_SS!_Sub003] (puzzle: Same State 1) | 41.9 | 68 | 96.2 | – | – | –
13 | CUAUCUACAGGUUGCAGUGCUCGUCUUAUACAUGAGGAUCACCCAUGUUAUAGCCCGGUGCUUGCGCUGGGCUGACC [JL ViennaUCT Tearor mod 1] (puzzle: Sensor for hsa-mir-208a) | 33.7 | 15.6 | 33.6 | – | – | –
14 | CUCAAAACAAGCUGCAGUGUUCGUCUUUCACAUGAGGAUCACCCAUGUAGUAGCCCAGUGGAAGCGCUCGGGCCACC [Eronrace] (puzzle: Sensor for hsa-mir-208a) | 55 | 24.9 | 54.1 | – | – | –
15 | CUCAAAACAAGUUGCAGUGUUCGUCUUUAACAUGAGGAUCACCCAUGUAAUAGCCCGGUGGAAGCGCUCGGGCUACC [Edtireisge] (puzzle: Sensor for hsa-mir-208a) | 39.8 | 24 | 45.5 | – | – | –
16 | CUCAAACAUGAGGAUCACCCAUGUGUUGUCAUGGGAGGAUAUCUAAGUUCAUUGUAUUCAGGAGAAGGCCUAUGUC [× ×•×ª×• ×ž×“×™× ×” × ×—×ª-08] (puzzle: Same State 1) | – | 284 | – | – | – | –
17 | CUCCAUUGGGUAGGAUAUCUAGGAUAUGGGAAAGACUAAGUCUGUAGGUCACCUAACCCAGAUGGAGAGAAGGACCCAACACUC [pwkr ssNG2 2FMN + F9.40] (Eterna round: R96, puzzle: Same State NG 2) | – | – | – | 15.1 | 15.2 | 23.2
18 | CUCGAGAGGUUAUAGGAUAUCCAUUUACGUACAUGAGGAUCACCCAUGUCUGACCGCUGGGUCAGGGAGAAGGGUAAGAUCGAGA [Tegeoror] (puzzle: Same State 2) | 275 | 420 | 600 | – | – | –
19 | CUCUCACAUGAGGAUCACCCAUGUCCACCUCCGUGAGGAUAUAGAUAAUAAAUACAUUUACUAGAAGGCGCAUCCC [Bay] (puzzle: Same State 1) | – | 263 | – | – | – | –
20 | CUGAGAUGUCAAGGAUAUCACGUCGAUUAGACGUGAGAAGGUGAUCUGUACAUGAGGAUCACCCAUGUGUUACAUGGAACUCAG [Brourd's SSNG1/1-A2 mod 10] (Eterna round: R96, puzzle: Same State NG 1) | – | – | – | 184 | 30.9 | 53.9
21 | CUGAGCGAUCAAGGAUAUCACGUCGAAUAGACGUGAGAAGGUGAUAAUUACAUGAGGAUCACCCAUGUAUAACAUGAAGCUCAG [SSNG1/9-A1] (Eterna round: R96, puzzle: Same State NG 1) | – | – | – | 16.6 | 15.6 | 22.4
22 | CUGAGCGAUUAAGGAUAUCACGUCGAUUAGACGUGAGAAGGUGAUCAUAACAUGAGGAUCACCCAUGUAUUACAUGAAGCUCAG [SSNG1/3-A2] (Eterna round: R96, puzzle: Same State NG 1) | – | – | – | 312 | 36.8 | 128
23 | CUGCAACAUGAGGAUCACCCAUGUAACCCAAUUAUAGGAUAUGUGAUAGUGAUCGACAUGACAGAAGGGUGAUUGG [Riraence] (puzzle: Same State 1) | 149 | 188 | 291 | – | – | –
24 | CUGCUACAUGAGGAUCACCCAUGUUGGAGUAAUGCAGGAUAUGUGAGACCAGAAGAUAAAACAGAAGGGCAAGGAG [JR_SS!_Sub008] (puzzle: Same State 1) | 18.8 | 20.8 | 24.6 | – | – | –
25 | CUGGAAAACACAGGAUAUACCCGUGAAUCACGGGUAGAAGGGUGAAACAUGAGGAUCACCCAUGUUACCUCCCAAGGGAGGAUU [Zaleisge] (Eterna round: R96, puzzle: Same State NG 1) | – | – | – | 432 | 518 | 946
26 | CUGUACCAUGGAGGAUAUGGGCUGAGACCAGGACAACCCUGGUCAACAUGAGGAUCACCCAUGUCCCAGAAGGCCACGGUGCUA [Anraores] (Eterna round: R96, puzzle: Same State NG 2) | – | – | – | 16 | 103 | 132
27 | CUGUAUCGCGGAGGAUAUGGGCUGAGACCAGGGCAACCCUGGUCAACAUGAGGAUCACCCAUGUCCCAGAAGGCCGCAAUGCUA [Esatanla] (Eterna round: R96, puzzle: Same State NG 2) | – | – | – | 34.7 | 128 | 137
28 | CUUUUUAGUGCAGGAUAUGAUCAACAUGAGGAUCACCCAUGUGGCGUUGUGAGUAGGGAGAGAGAUCAGAAGGGCGUCUCCGCG [SS-NG2-LRO12] (Eterna round: R96, puzzle: Same State NG 2) | – | – | – | 46.4 | 62.3 | 42.2
